{"source": "patent US20250171562A1", "binders": {"B1": {"name": "CIgG4F4A1(G4S)1 (Fc fusion)", "chain 1": "GPPCPPCPAPEFLGGPSVFLFPPKPKDTLMISRTPEVTCVVVDVSQEDPEVQFNWYVDGVEVHNAKTKPREEQFNSTYRVVSVLTVLHQDWLNGKEYKCKVSNKGLPSSIEKTISKAKGQPREPQVYTLPPCQEEMTKNQVSLWCLVKGFYPSDIAVEWESNGQPENNYKTTPPVLDSDGSFFLYSRLTVDKSRWQEGNVFSCSVMHEALHNHYTQKSLSLSLGKGGGGSDVQLQESGGGLVQAGGSLRLSCAVSGLSFSSMGWFRQPPGKEREFVAAISLYSGSTYYADSVKGRFTISSDNAKSTVYLQMNSLKPEDAAVYFCAADRQRTWSTFYASRQATYNYWGQGTQVTVTS", "chain 2": "GPPCPPCPAPEFLGGPSVFLFPPKPKDTLMISRTPEVTCVVVDVSQEDPEVQFNWYVDGVEVHNAKTKPREEQFNSTYRVVSVLTVLHQDWLNGKEYKCKVSNKGLPSSIEKTISKAKGQPREPQVCTLPPSQEEMTKNQVSLSCAVKGFYPSDIAVEWESNGQPENNYKTTPPVLDSDGSFFLVSRLTVDKSRWQEGNVFSCSVMHEALHNHYTQKSLSLSLGKGGGGSEVQLLESGGGLVQPGGSLRLSCAASGFTFGNYDMAWVRQAPGKRPEWVSSIDTGGDITHYADSVKGRFTISRDNAKNTLYLQMNSLRPEDTAVYWCATDEEYALGPNEFDYYGQGTLVTVSS"}, "B2": {"name": "CIgG4F4A1(G4S)2 (Fc fusion)", "chain 1": "GPPCPPCPAPEFLGGPSVFLFPPKPKDTLMISRTPEVTCVVVDVSQEDPEVQFNWYVDGVEVHNAKTKPREEQFNSTYRVVSVLTVLHQDWLNGKEYKCKVSNKGLPSSIEKTISKAKGQPREPQVYTLPPCQEEMTKNQVSLWCLVKGFYPSDIAVEWESNGQPENNYKTTPPVLDSDGSFFLYSRLTVDKSRWQEGNVFSCSVMHEALHNHYTQKSLSLSLGKGGGGSGGGGSDVQLQESGGGLVQAGGSLRLSCAVSGLSFSSMGWFRQPPGKEREFVAAISLYSGSTYYADSVKGRFTISSDNAKSTVYLQMNSLKPEDAAVYFCAADRQRTWSTFYASRQATYNYWGQGTQVTVTS", "chain 2": "GPPCPPCPAPEFLGGPSVFLFPPKPKDTLMISRTPEVTCVVVDVSQEDPEVQFNWYVDGVEVHNAKTKPREEQFNSTYRVVSVLTVLHQDWLNGKEYKCKVSNKGLPSSIEKTISKAKGQPREPQVCTLPPSQEEMTKNQVSLSCAVKGFYPSDIAVEWESNGQPENNYKTTPPVLDSDGSFFLVSRLTVDKSRWQEGNVFSCSVMHEALHNHYTQKSLSLSLGKGGGGSGGGGSEVQLLESGGGLVQPGGSLRLSCAASGFTFGNYDMAWVRQAPGKRPEWVSSIDTGGDITHYADSVKGRFTISRDNAKNTLYLQMNSLRPEDTAVYWCATDEEYALGPNEFDYYGQGTLVTVSS"}, "B3": {"name": "CIgG4F4A1(G4S)3 (Fc fusion)", "chain 1": "GPPCPPCPAPEFLGGPSVFLFPPKPKDTLMISRTPEVTCVVVDVSQEDPEVQFNWYVDGVEVHNAKTKPREEQFNSTYRVVSVLTVLHQDWLNGKEYKCKVSNKGLPSSIEKTISKAKGQPREPQVYTLPPCQEEMTKNQVSLWCLVKGFYPSDIAVEWESNGQPENNYKTTPPVLDSDGSFFLYSRLTVDKSRWQEGNVFSCSVMHEALHNHYTQKSLSLSLGKGGGGSGGGGSGGGGSDVQLQESGGGLVQAGGSLRLSCAVSGLSFSSMGWFRQPPGKEREFVAAISLYSGSTYYADSVKGRFTISSDNAKSTVYLQMNSLKPEDAAVYFCAADRQRTWSTFYASRQATYNYWGQGTQVTVTS", "chain 2": "GPPCPPCPAPEFLGGPSVFLFPPKPKDTLMISRTPEVTCVVVDVSQEDPEVQFNWYVDGVEVHNAKTKPREEQFNSTYRVVSVLTVLHQDWLNGKEYKCKVSNKGLPSSIEKTISKAKGQPREPQVCTLPPSQEEMTKNQVSLSCAVKGFYPSDIAVEWESNGQPENNYKTTPPVLDSDGSFFLVSRLTVDKSRWQEGNVFSCSVMHEALHNHYTQKSLSLSLGKGGGGSGGGGSGGGGSEVQLLESGGGLVQPGGSLRLSCAASGFTFGNYDMAWVRQAPGKRPEWVSSIDTGGDITHYADSVKGRFTISRDNAKNTLYLQMNSLRPEDTAVYWCATDEEYALGPNEFDYYGQGTLVTVSS"}, "B4": {"name": "NIgG4F5A1(RS) (Fc fusion)", "chain 1": "DVQLQESGGGLVQPGGSLRLSCAASGSIFSIDIMGWYRQAPGKQRELVATMPEGNYINYADSVKGRLTLSRDKGKNTVYLQLNSLKPEDTAVYYCYGFGVREGRGNVYWGQGTQVTVSRSGPPCPPCPAPEFLGGPSVFLFPPKPKDTLMISRTPEVTCVVVDVSQEDPEVQFNWYVDGVEVHNAKTKPREEQFNSTYRVVSVLTVLHQDWLNGKEYKCKVSNKGLPSSIEKTISKAKGQPREPQVYTLPPCQEEMTKNQVSLWCLVKGFYPSDIAVEWESNGQPENNYKTTPPVLDSDGSFFLYSRLTVDKSRWQEGNVFSCSVMHEALHNHYTQKSLSLSLGK", "chain 2": "EVQLLESGGGLVQPGGSLRLSCAASGFTFGNYDMAWVRQAPGKRPEWVSSIDTGGDITHYADSVKGRFTISRDNAKNTLYLQMNSLRPEDTAVYWCATDEEYALGPNEFDYYGQGTLVTVSSRSGPPCPPCPAPEFLGGPSVFLFPPKPKDTLMISRTPEVTCVVVDVSQEDPEVQFNWYVDGVEVHNAKTKPREEQFNSTYRVVSVLTVLHQDWLNGKEYKCKVSNKGLPSSIEKTISKAKGQPREPQVCTLPPSQEEMTKNQVSLSCAVKGFYPSDIAVEWESNGQPENNYKTTPPVLDSDGSFFLVSRLTVDKSRWQEGNVFSCSVMHEALHNHYTQKSLSLSLGK"}, "B5": {"name": "NIgG4F5A1(G4S)1 (Fc fusion)", "chain 1": "DVQLQESGGGLVQPGGSLRLSCAASGSIFSIDIMGWYRQAPGKQRELVATMPEGNYINYADSVKGRLTLSRDKGKNTVYLQLNSLKPEDTAVYYCYGFGVREGRGNVYWGQGTQVTVSGGGGSGPPCPPCPAPEFLGGPSVFLFPPKPKDTLMISRTPEVTCVVVDVSQEDPEVQFNWYVDGVEVHNAKTKPREEQFNSTYRVVSVLTVLHQDWLNGKEYKCKVSNKGLPSSIEKTISKAKGQPREPQVYTLPPCQEEMTKNQVSLWCLVKGFYPSDIAVEWESNGQPENNYKTTPPVLDSDGSFFLYSRLTVDKSRWQEGNVFSCSVMHEALHNHYTQKSLSLSLGK", "chain 2": "EVQLLESGGGLVQPGGSLRLSCAASGFTFGNYDMAWVRQAPGKRPEWVSSIDTGGDITHYADSVKGRFTISRDNAKNTLYLQMNSLRPEDTAVYWCATDEEYALGPNEFDYYGQGTLVTVSSGGGGSGPPCPPCPAPEFLGGPSVFLFPPKPKDTLMISRTPEVTCVVVDVSQEDPEVQFNWYVDGVEVHNAKTKPREEQFNSTYRVVSVLTVLHQDWLNGKEYKCKVSNKGLPSSIEKTISKAKGQPREPQVCTLPPSQEEMTKNQVSLSCAVKGFYPSDIAVEWESNGQPENNYKTTPPVLDSDGSFFLVSRLTVDKSRWQEGNVFSCSVMHEALHNHYTQKSLSLSLGK"}, "B6": {"name": "NIgG4F5A1(G4S)2 (Fc fusion)", "chain 1": "DVQLQESGGGLVQPGGSLRLSCAASGSIFSIDIMGWYRQAPGKQRELVATMPEGNYINYADSVKGRLTLSRDKGKNTVYLQLNSLKPEDTAVYYCYGFGVREGRGNVYWGQGTQVTVSGGGGSGGGGSGPPCPPCPAPEFLGGPSVFLFPPKPKDTLMISRTPEVTCVVVDVSQEDPEVQFNWYVDGVEVHNAKTKPREEQFNSTYRVVSVLTVLHQDWLNGKEYKCKVSNKGLPSSIEKTISKAKGQPREPQVYTLPPCQEEMTKNQVSLWCLVKGFYPSDIAVEWESNGQPENNYKTTPPVLDSDGSFFLYSRLTVDKSRWQEGNVFSCSVMHEALHNHYTQKSLSLSLGK", "chain 2": "EVQLLESGGGLVQPGGSLRLSCAASGFTFGNYDMAWVRQAPGKRPEWVSSIDTGGDITHYADSVKGRFTISRDNAKNTLYLQMNSLRPEDTAVYWCATDEEYALGPNEFDYYGQGTLVTVSSGGGGSGGGGSGPPCPPCPAPEFLGGPSVFLFPPKPKDTLMISRTPEVTCVVVDVSQEDPEVQFNWYVDGVEVHNAKTKPREEQFNSTYRVVSVLTVLHQDWLNGKEYKCKVSNKGLPSSIEKTISKAKGQPREPQVCTLPPSQEEMTKNQVSLSCAVKGFYPSDIAVEWESNGQPENNYKTTPPVLDSDGSFFLVSRLTVDKSRWQEGNVFSCSVMHEALHNHYTQKSLSLSLGK"}}, "data": [{"target": "mixture of three Der p 2 specific recombinant human IgE clones H10, H12, P4E (human) (UniProt P01854)", "sequence (P01854 other isoform, or with tags, fused parts or gaps)": "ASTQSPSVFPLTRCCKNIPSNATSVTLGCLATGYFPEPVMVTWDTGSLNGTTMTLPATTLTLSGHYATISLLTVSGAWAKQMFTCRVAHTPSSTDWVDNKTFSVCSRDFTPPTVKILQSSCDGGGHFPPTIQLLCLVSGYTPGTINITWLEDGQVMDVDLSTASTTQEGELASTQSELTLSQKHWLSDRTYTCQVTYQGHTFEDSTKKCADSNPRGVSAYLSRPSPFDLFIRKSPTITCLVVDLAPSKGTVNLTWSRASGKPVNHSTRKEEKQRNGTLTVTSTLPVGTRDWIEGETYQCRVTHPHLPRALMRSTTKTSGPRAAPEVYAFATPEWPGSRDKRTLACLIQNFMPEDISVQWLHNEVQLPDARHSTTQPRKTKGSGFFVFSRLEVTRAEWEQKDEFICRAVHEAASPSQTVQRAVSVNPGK", "assay": "RBL-SX38 IgE displacement, FACS", "units": {"EC50": "nM", "Max effect/effect 1 µM": "%"}, "values": [{"binder": "B1", "EC50": 0.9, "Max effect/effect 1 µM": 100}, {"binder": "B2", "EC50": 0.9, "Max effect/effect 1 µM": 100}, {"binder": "B3", "EC50": 1.2, "Max effect/effect 1 µM": 97}, {"binder": "B4", "EC50": 0.7, "Max effect/effect 1 µM": 99}, {"binder": "B5", "EC50": 28.9, "Max effect/effect 1 µM": 67}, {"binder": "B6", "EC50": 21.2, "Max effect/effect 1 µM": 75}]}]}
